Source: PMC7702011 (2020)

Target: Recombinant NPTN polypeptide (UniProt Q9Y639 29-398)
Experiment: MST

Sequence of Recombinant NPTN polypeptide (Q9Y639 29-339): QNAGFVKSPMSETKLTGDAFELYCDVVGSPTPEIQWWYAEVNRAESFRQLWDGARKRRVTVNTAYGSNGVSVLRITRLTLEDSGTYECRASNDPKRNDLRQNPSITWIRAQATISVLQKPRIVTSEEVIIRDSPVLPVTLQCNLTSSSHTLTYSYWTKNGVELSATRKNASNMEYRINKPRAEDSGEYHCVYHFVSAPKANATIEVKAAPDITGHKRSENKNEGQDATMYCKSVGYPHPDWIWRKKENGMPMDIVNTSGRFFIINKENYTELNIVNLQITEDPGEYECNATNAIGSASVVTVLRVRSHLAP

- Kd: 104 nM
B1: Recombinant MANF polypeptide, labeled with Alexa 647 (ligand)
chain: LRPGDCEVCISYLGRFYQDLKDRDVTFSPATIENELIKFCREARGKENRLCYYIGATDDAATKIINEVSKPLAHHIPVEKICEKLKKKDSQICELKYDKQIDLSTVDLKKLRVKELKKILDDWGETCKGCAEKSDYIRKINELMPKYAPKAASARTDL
modifications: fluorescently labeled with Alexa 647
